Experimental data as given in patent publication US20180244738A1.

Target: NuRD complex (nucleosome remodeling and deacetylase corepressor complex)
Assay: cell-based or functional assay

full-length SALL1, wild-type (transfected, pcDNA3.1-SALL1) (from UniProt Q9NSC2 1-1324)
tumor cell senescence (SA-β-Gal+ cells) in transfected MCF-7 and E0771 cells, 3 days: 40%
